T1: human glycophorin A in the red blood cell membrane (human, UniProt P02724 20-150)
T1 construct: whole, on cells; used for intact RBC, isolated RBC membranes and transfected cells; the assay field tells which; also called GPA; hGPA
T1 sequence (looked up): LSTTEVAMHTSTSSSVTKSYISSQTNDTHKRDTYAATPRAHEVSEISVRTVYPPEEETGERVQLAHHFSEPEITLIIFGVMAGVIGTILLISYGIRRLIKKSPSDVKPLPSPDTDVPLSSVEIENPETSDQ

T2: Rhesus monkey glycophorin A on Rhesus monkey red blood cells (Rhesus monkey, UniProt A0A1D5Q349 20-150)
T2 construct: whole, on cells; also called Rhesus RBC; monkey GPA
T2 sequence: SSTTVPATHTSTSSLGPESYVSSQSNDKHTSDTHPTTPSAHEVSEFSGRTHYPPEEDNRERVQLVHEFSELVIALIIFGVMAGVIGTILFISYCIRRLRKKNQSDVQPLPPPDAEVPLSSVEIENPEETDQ


How the values were obtained:
[1] = biological target: T1, human glycophorin A in the red blood …; experiment: FACS, RBC Hu03
Experimental: (§1) The binding of the humanized variants to intact red blood cells (RBC) from humans (Hu01 to 03; 3 individuals), Rhesus monkey (Rh01 to 03; 3 individuals) and Cynomolgus monkey (Cy01 to 02; 2 individuals) was measured by fluorescence activated cell sorting (FACS).

[2] = biological target: T2, Rhesus monkey glycophorin A on Rhesus …; experiment: FACS, RBC Rh02
[3] = biological target: T1, human glycophorin A in the red blood …; experiment: FACS, RBC Hu02
Experimental: as §1

[4] = biological target: T1, human glycophorin A in the red blood …; experiment: FACS, IgG
Experimental: as §1

[5] = biological target: T1, human glycophorin A in the red blood …; experiment: FACS, RBC Hu01
Experimental: as §1

[6] = biological target: T3, Cynomolgus monkey glycophorin A on Cynomolgus monkey red blood cells (Cynomolgus monkey); experiment: FACS, RBC Cy02
T3 construct: whole, on cells; also called Cyno RBC; Cyno GPA
Experimental: as §1

[7] = biological target: T3, Cynomolgus monkey glycophorin A on …; experiment: FACS, RBC Cy01
Experimental: as §1

[8] = biological target: T2, Rhesus monkey glycophorin A on Rhesus …; experiment: FACS, RBC Rh01
Experimental: as §1

[9] = biological target: T2, Rhesus monkey glycophorin A on Rhesus …; experiment: FACS, RBC Rh03
Experimental: as §1

Row | Binder | fluorescence intensity [1] | fluorescence intensity [2] | fluorescence intensity [3] | binding result [4] | fluorescence intensity [5] | fluorescence intensity [6] | fluorescence intensity [7] | fluorescence intensity [8] | fluorescence intensity [9]
1 | Hu6C12-4 (antibody, V domains shown, IgG format; VH.1d + Vk.1) VH: EVQLVQSGAEVKKPGASVKVSCKASGYTFTTYTIHWVRQAPGQGLEWMGYINPSSDYTRYNPKFKDRVTLTTDTSTSTAYMELRSLRSDDTAVYYCQRGTRDYWGQGTTVTVSS VL: DIQLTQSPSFLSASVGDRVTITCSAASSVSYIYWYQQKPGKAPKLLIYSTSTLPSGVPSRFSGSGSGTEFTLTISSLQPEDFATYYCHQRNSFPFTFGQGTKLEIK | 2 | 1320 | 3 | no binding | 3 | 989 | 884 | 1070 | 1340
2 | Hu6C12-9 (antibody, V domains shown, IgG format; VH.1 + Vk.1a) VH: EVQLVQSGAEVKKPGASVKVSCKASGYTFTTYTIHWVRQAPGQGLEWMGYINPSSDYTRYNPKFKDRVTMTTDTSTSTAYMELRSLRSDDTAVYYCARGTRDYWGQGTTVTVSS VL: DIQLTQSPSFLSASVGDRVTITCSAASSVSYIYWYQQKPGKAPKLLIYSTSTLPSGVPSRFSGSGSGTEYTLTISSLQPEDFATYYCHQRNSFPFTFGQGTKLEIK | 2 | 1060 | 3 | no binding | 3 | 756 | 680 | 1060 | 1050

More lines, now with the values ahead:

Row | fluorescence intensity [1] | fluorescence intensity [2] | fluorescence intensity [3] | binding result [4] | fluorescence intensity [5] | fluorescence intensity [6] | fluorescence intensity [7] | fluorescence intensity [8] | fluorescence intensity [9] | Binder
3 | 2 | 1310 | 3 | no binding | 3 | 973 | 872 | 1410 | 1310 | Hu6C12-10 (antibody, V domains shown, IgG format; VH.1a + Vk.1a) VH: EVQLVQSGAEVKKPGASVKVSCKASGYTFTTYTIHWVRQAPGQGLEWMGYINPSSDYTRYNPKFKDRVTMTTDTSTSTAYMELRSLRSDDTAVYYCQRGTRDYWGQGTTVTVSS VL: DIQLTQSPSFLSASVGDRVTITCSAASSVSYIYWYQQKPGKAPKLLIYSTSTLPSGVPSRFSGSGSGTEYTLTISSLQPEDFATYYCHQRNSFPFTFGQGTKLEIK
4 | 2 | 1280 | 3 | no binding | 3 | 937 | 824 | 1370 | 1270 | Hu6C12-13 (antibody, V domains shown, IgG format; VH.1d + Vk.1a) VH: EVQLVQSGAEVKKPGASVKVSCKASGYTFTTYTIHWVRQAPGQGLEWMGYINPSSDYTRYNPKFKDRVTLTTDTSTSTAYMELRSLRSDDTAVYYCQRGTRDYWGQGTTVTVSS VL: DIQLTQSPSFLSASVGDRVTITCSAASSVSYIYWYQQKPGKAPKLLIYSTSTLPSGVPSRFSGSGSGTEYTLTISSLQPEDFATYYCHQRNSFPFTFGQGTKLEIK

— patent US20190359687A1 (Bayer, published 2019)
